Data taken from article PMC3316703.
One block for each molecule: values may come before it.

Columns and labels:
[1] = target: Thy-1 on the surface of primary rat cortical neurons (rat (endogenous in primary cortical neurons)) (UniProt P01830)
[2] = target: Thy-1 on the surface of primary rat cortical neurons (rat (endogenous in primary cortical neurons)) (UniProt P01830); remark: listed apart in the source
[3] = target: Thy-1 on CAD cells (mouse (endogenous in CAD cells)) (UniProt P01831)
[4] = target: Thy-1 on the surface of primary rat cortical neurons (rat (endogenous in primary cortical neurons)) (UniProt P01830); remark: listed apart in the source
[5] = target: αVβ3 integrin on the cell surface of DITNC1 astrocytes (UniProt Q8R2H2)
Chain of UniProt Q8R2H2 (Q8R2H2 whole entry, looked up): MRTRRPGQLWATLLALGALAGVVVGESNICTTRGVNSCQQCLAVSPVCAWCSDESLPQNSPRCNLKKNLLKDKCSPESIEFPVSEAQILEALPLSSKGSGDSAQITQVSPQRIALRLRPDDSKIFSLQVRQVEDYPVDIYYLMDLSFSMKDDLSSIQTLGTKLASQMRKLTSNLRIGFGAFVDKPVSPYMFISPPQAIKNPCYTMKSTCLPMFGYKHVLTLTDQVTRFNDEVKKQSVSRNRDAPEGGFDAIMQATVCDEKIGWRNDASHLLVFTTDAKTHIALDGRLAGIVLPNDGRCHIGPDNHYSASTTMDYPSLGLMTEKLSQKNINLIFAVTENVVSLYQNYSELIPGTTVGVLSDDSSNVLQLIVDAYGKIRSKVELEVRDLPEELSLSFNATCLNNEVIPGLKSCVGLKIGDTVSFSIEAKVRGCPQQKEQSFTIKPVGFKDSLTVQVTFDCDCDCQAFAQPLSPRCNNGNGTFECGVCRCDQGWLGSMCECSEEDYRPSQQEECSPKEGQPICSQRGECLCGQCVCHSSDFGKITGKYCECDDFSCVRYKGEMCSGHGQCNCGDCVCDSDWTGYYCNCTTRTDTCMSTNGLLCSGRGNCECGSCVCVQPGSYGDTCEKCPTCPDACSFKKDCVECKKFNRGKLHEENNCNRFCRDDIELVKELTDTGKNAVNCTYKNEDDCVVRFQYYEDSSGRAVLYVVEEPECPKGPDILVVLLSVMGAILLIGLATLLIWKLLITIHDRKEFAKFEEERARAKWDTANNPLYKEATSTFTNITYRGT

Chain of UniProt P01830 (P01830 20-130): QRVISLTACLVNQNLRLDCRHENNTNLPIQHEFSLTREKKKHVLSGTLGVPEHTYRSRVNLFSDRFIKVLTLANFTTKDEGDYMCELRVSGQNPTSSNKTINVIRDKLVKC

- length of dendrites of cortical neurons (4–5 days in culture) treated with αVβ3-Fc-containing supernatant for 72 hours, compared with non-treated neurons; prevented by PI-PLC pre-treatment [1]: 50 % decrease
- percentage of axonal terminals collapsed in mature cortical neurons treated with αVβ3-Fc cross-linked with Protein A [2]: 80%
- length of processes of CAD cells on αVβ3-Fc-coated plates in comparison to controls [3]: 40 % decrease
- percentage of Thy-1 positive axonal terminals collapsed in mature cortical neurons (12–15 days in vitro) treated with αVβ3-Fc-containing supernatants [4]: 55%
Molecule: αVβ3-Fc fusion protein (from UniProt P06756 31-1048; P05106 27-718)

- percentage of differentiated CAD cells (processes ≥15 µm) seeded over a monolayer of DITNC1 astrocytes, against ∼80% on plastic [5]: 35%
B1: Thy-1 on CAD cells (natural protein)
chain: QKVTSLTACLVNQNLRLDCRHENNTKDNSIQHEFSLTREKRKHVLSGTLGIPEHTYRSRVTLSNQPYIKVLTLANFTTKDEGDYFCELQVSGANPMSSNKSISVYRDKLVKC
modifications: GPI anchor
